From patent publication US20190269666A1, “COMBINATION THERAPY WITH MERESTINIB AND ANTI-PD-L1 OR ANTI-PD-1 INHIBITORS FOR USE IN THE TREATMENT OF CANCER” (Eli Lilly and Company, priority 2016, published 2019)

Legend:
human PD-L1 [1] = biological target: T1, human PD-L1 (Homo sapiens, UniProt Q9NZQ7); test: Binding kinetics and affinity by surface plasmon resonance (Biacore); set-up: Soluble human PD-L1-Fc fusion protein; details: SPR, analysis at 37° C.
Method: (§1) The kinetics and equilibrium dissociation constant (KD) for human PD-L1 is determined for antibodies of the present invention using surface plasmon resonance (Biacore).
(§2) Immobilization of antibodies of the present invention as ligand on to sensor chip surface is performed at 25° C. Soluble human PD-L1-Fc fusion protein (and in some cases, cynomolgus monkey PD-L1-Fc fusion proteins) is injected as analyte at concentrations ranging from 0.0123 nM-9 nM. The analysis is performed at 37° C. The contact time for each sample is 180 seconds at 30 μL/minute. The dissociation time was 240-1500 seconds. The immobilized surface is regenerated for 18 seconds with 0.95 M NaCl/25 mM NaOH at 30 μL/minute, and then stabilized for 30 seconds. Binding kinetics are analyzed using the Biacore T200 Evaluation software (Version 3.0). Data are referenced to a blank flow cell, and the data are fit to a 1:1 binding model.
Target sequence in this assay (Q9NZQ7 19-238 limits assumed): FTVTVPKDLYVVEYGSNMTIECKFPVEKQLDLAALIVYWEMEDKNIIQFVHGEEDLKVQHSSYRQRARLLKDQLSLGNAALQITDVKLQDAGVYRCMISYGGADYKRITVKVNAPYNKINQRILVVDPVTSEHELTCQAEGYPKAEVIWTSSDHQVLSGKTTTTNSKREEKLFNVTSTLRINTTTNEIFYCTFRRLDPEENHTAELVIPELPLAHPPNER

PD-L1 binding to PD-1 = PD-L1 binding to PD-1 (Homo sapiens, UniProt Q9NZQ7); test: ELISA blocking of the interaction of PD-L1 with PD-1; details: after 4 weeks at 4° C., 25° C. and 40° C.
Method: The ability for antibodies of the present invention to block PD-L1 binding to PD-1 can be measured in an ELISA assay. For the receptor-ligand blocking assay, varying amounts (of anti-PD-L1 antibody or control IgG are mixed with a fixed amount of biotinylated PD-L1-Fc fusion protein (100 ng/well) and incubated at room temperature for 1 hour. The mixture is transferred to 96-well plates pre-coated with PD-1-Fc (1 μg/ml) and then incubated at room temperature for an additional 1 hour. After washing, streptavidin HRP conjugate is added, and the absorbance at 450 nm is read. IC50 represents the antibody concentration required for 50% inhibition of PD-L1 binding to PD-1.

Cyno PD-L1 = test: Binding kinetics and affinity by surface plasmon resonance (Biacore); set-up: species or system cynomolgus monkey; details: SPR, analysis at 37° C.
Method: as §1, §2

human PD-L1 [2] = biological target: T1, human PD-L1; test: ELISA binding to recombinant PD-L1; set-up: purchased R&D Systems; details: after 4 weeks at 4° C., 25° C. and 40° C.
Method: The ability for antibodies of the present invention to bind human PD-L1 can be measured with an ELISA assay. For the PD-L1 binding assay, a 96-well plate (NUNC®) is coated with human PD-L1-Fc (R&D Systems) overnight at 4° C. Wells are blocked for 2 hours with blocking buffer (PBS containing 5% nonfat dry milk). Wells are washed three times with PBS containing 0.1% TWEEN®-20. Anti-PD-L1 antibody or control IgG (100 μL) is then added and incubated at room temperature for 1 hour. After washing, the plate is incubated with 100 μL of goat anti-human IgG F(ab′)2-HRP conjugate (Jackson Immuno Research) at room temperature for 1 hour. The plates are washed and then incubated with 100 μL of 3,3′, 5,5′-tetra-methylbenzidine. The absorbance at 450 nm is read on a microplate reader. The half maximal effective concentration (EC50) is calculated using GraphPad Prism 6 software.
Target sequence in this assay (Q9NZQ7 with tags, fused parts or gaps limits assumed): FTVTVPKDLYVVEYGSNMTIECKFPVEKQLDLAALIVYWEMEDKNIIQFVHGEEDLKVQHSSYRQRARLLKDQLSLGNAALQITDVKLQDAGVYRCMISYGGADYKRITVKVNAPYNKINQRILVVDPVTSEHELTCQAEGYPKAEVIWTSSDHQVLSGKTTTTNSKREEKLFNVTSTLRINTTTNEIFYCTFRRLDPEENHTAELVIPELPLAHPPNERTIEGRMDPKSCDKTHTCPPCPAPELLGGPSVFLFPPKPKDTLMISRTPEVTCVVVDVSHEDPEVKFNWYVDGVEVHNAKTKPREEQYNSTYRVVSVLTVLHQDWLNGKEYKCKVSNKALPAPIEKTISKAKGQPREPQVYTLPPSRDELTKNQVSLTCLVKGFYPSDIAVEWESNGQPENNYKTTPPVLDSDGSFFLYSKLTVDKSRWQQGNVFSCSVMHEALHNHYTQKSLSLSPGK

Chain of PD-L1 binding to PD-1 (Q9NZQ7 19-239 limits assumed): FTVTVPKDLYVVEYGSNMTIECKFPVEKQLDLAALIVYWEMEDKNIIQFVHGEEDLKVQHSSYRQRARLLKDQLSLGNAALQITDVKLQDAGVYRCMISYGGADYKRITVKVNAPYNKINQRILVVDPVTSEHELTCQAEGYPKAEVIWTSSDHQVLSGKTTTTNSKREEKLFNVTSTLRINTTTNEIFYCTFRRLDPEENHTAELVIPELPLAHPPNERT

Koff (human PD-L1 [1]): 0.000114 s⁻¹
Kon (human PD-L1 [1]): 1.4e+06 M⁻¹ s⁻¹
Koff (Cyno PD-L1): 0.000184 s⁻¹
Kon (Cyno PD-L1): 1.51e+06 M⁻¹ s⁻¹
Substance: LY3300054: IgG1 variant antibody lacking Fc effector function, that binds human PD-L1; HC SEQ ID NO: 10, LC SEQ ID NO: 11
blocking activities after storage (PD-L1 binding to PD-1): retains its blocking activities
binding activities after storage (human PD-L1 [2]): retains its binding activities
